Numbering of substitutions follows the chain as printed. Names may count otherwise. Each block holds one binder with its values, some of them ahead of it.
Legend:
human IL-6 [1] = target: T1, human IL-6 (human, UniProt P05231 30-212); assay: yeast Fab display; biotinylated IL-6 remaining after overnight competition with 2 uM IL-6
T1 construct: L19, R24 and D34 fit a start at residue 29 of the precursor; also called free IL-6; biotinylated human IL-6

human IL-6 [2] = target: T1, human IL-6; assay: yeast system; format in the assay not stated
human IL-6 [3] = target: T1, human IL-6; assay: cell-based or functional assay
hyper IL-6 = assay: cell-based or functional assay
[4] = target: T2, IL-6R on HEK-Blue IL6 reporter cells (UniProt P08887 20-468, limits assumed); assay: cell-based or functional assay
T2 sequence (looked up): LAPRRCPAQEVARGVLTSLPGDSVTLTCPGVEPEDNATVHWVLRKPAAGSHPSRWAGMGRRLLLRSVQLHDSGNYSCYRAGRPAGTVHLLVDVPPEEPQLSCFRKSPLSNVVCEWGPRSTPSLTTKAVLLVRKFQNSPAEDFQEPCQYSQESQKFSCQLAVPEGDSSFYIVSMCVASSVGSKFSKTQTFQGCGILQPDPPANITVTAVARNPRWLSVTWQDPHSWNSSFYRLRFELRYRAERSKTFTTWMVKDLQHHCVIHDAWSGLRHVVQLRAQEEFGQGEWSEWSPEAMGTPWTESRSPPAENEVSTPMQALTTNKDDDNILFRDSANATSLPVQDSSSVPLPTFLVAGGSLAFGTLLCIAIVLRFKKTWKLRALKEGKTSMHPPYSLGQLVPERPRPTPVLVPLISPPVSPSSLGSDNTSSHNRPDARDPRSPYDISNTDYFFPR

human IL-6 [5] = target: T1, human IL-6; assay: ELISA on plates coated with human IL-6, hybridoma supernatants

binding result (human IL-6 [1]): binds
B1: EBI-029 Fab I51T/S55G (Fab, V domains shown)
VH: QVQLVQSGAEVKKPGSSVKVSCKASGYALSNYLIEWVRQAPGQGLEWMGVTTPGGGTINYAQKFQGRVTITADESTSTAYMELSSLRSEDTAVYYCARSRWDPLYYYALEYWGQGTTVTVSS
VL: DIVMTQSPDSLAVSLGERATINCRASESVDNYGIPFMNWYQQKPGQPPKLLIYAASNRGSGVPDRFSGSGSGTDFTLTISSLQAEDVAVYYCQQSEEVPLTFGQGTKLEIKR
notes: The mutations were introduced into the wild-type EBI-029 Fab; also called 151T/S55G

Kd (human IL-6 [2]): 0.343 nM
B2: h64 IgG (antibody, V domains shown)
VH: B1 VH with L29F, T51I, G55S
VL: DIVMTQSPDSLAVSLGERATINCRASESVDNYGISFMNWYQQKPGQPPKLLIYAASNQGSGVPDRFSGSGSGTDFTLTISSLQAEDVAVYYCQQSKEVPLTFGQGTKLEIK
notes: Expressed as inline fusions with the human IgG1 constant domains; also called original h64 antibody; the original humanized molecule

binding result (human IL-6 [1]): binds
B3: EBI-029 Fab A28V/I51T/S55G (Fab, V domains shown)
VH: B1 VH with A28V
VL: B1 VL

binding result (human IL-6 [1]): binds
B4: EBI-029 Fab S30P/I51T/S55G (Fab, V domains shown)
VH: B1 VH with S30P
VL: B1 VL

IC50 fold less than that of EBI-029, HEK-Blue IL6 cells (human IL-6 [3]): > 50 fold
IC90 fold less than that of EBI-029, HEK-Blue IL6 cells (human IL-6 [3]): ~4000 fold
fold decrease in IC50 against EBI-029, HEK-Blue IL6 cells, 20 pM IL-6 (human IL-6 [3]): ~50 fold
fold decrease in IC90 against EBI-029, HEK-Blue IL6 cells, 20 pM IL-6 (human IL-6 [3]): > 100 fold
B5: EBI-030 IgG2 (antibody)
heavy: QVQLVQSGAEVKKPGSSVKVSCKASGYVLPNYLIEWVRQAPGQGLEWMGVTTPGGGTINYAQKFQGRVTITADESTSTAYMELSSLRSEDTAVYYCARSRWDPLYYYALEYWGQGTTVTVSSASTKGPSVFPLAPCSRSTSESTAALGCLVKDYFPEPVTVSWNSGALTSGVHTFPAVLQSSGLYSLSSVVTVPSSNFGTQTYTCNVDHKPSNTKVDKTVERKCCVECPPCPAPPVAGPSVFLFPPKPKDTLMISRTPEVTCVVVDVSHEDPEVQFNWYVDGVEVHNAKTKPREEQFNSTFRVVSVLTVVHQDWLNGKEYKCKVSNKGLPAPIEKTISKTKGQPREPQVYTLPPSREEMTKNQVSLTCLVKGFYPSDIAVEWESNGQPENNYKTTPPMLDSDGSFFLYSKLTVDKSRWQQGNVFSCSVMHEALHNHYTQKSLSLSPGK
light: DIVMTQSPDSLAVSLGERATINCRASESVDNYGIPFMNWYQQKPGQPPKLLIYAASNRGSGVPDRFSGSGSGTDFTLTISSLQAEDVAVYYCQQSEEVPLTFGQGTKLEIKRTVAAPSVFIFPPSDEQLKSGTASVVCLLNNFYPREAKVQWKVDNALQSGNSQESVTEQDSKDSTYSLSSTLTLSKADYEKHKVYACEVTHQGLSSPVTKSFNRGEC

IC50, cis-signaling, HEK-Blue IL6 cells, 20 pM free IL-6 (human IL-6 [3]): 14.2 pM
IC50 fold less than that of EBI-029, HEK-Blue IL6 cells (human IL-6 [3]): > 75 fold
IC90 fold less than that of EBI-029, HEK-Blue IL6 cells (human IL-6 [3]): ~350 fold
fold decrease in IC50 against EBI-029, HEK-Blue IL6 cells, 20 pM IL-6 (human IL-6 [3]): ~50 fold
fold decrease in IC90 against EBI-029, HEK-Blue IL6 cells, 20 pM IL-6 (human IL-6 [3]): > 100 fold
fold greater potency than tocilizumab, cis-signaling, HEK-Blue IL6 cells (human IL-6 [3]): > 900 fold
IC50, trans-signaling, HEK-Blue IL6 cells, 200 pM hyper IL-6 (hyper IL-6): 32 pM
fold more potent than tocilizumab, cellular assays (hyper IL-6): > 900 fold
B6: EBI-031 (antibody, human IgG2, kappa)
heavy: B5 heavy with H311A
light: B5 light

IC50, cis-signaling, HEK-Blue IL6 cells, 20 pM free IL-6 [4]: 12.9 nM
B7: Tocilizumab (antibody, human IgG1, kappa, V domains shown)
VH: QVQLQESGPGLVRPSQTLSLTCTVSGYSITSDHAWSWVRQPPGRGLEWIGYISYSGITTYNPSLKSRVTMLRDTSKNQFSLRLSSVTAADTAVYYCARSLARTTAMDYWGQGSLVTVSS
VL: DIQMTQSPSSLSASVGDRVTITCRASQDISSYLNWYQQKPGKAPKLLIYYTSRLHSGVPSRFSGSGSGTDFTFTISSLQPEDIATYYCQQGNTLPYTFGQGTKVEIKR

binding result (human IL-6 [5]): binds
B8: murine 64 antibody (antibody, V domains shown)
VH: QVQLQQSGAELVRPGTSVKVSCKASGYAFSNYLIEWVKQRPGQGLEWIGVITPGSGTINYNEKFKGKAVLTADKSSSTVYMQLSSLTSDDSAVYFCAKSRWDPLYYYALEYWGQGTSVTVSS
VL: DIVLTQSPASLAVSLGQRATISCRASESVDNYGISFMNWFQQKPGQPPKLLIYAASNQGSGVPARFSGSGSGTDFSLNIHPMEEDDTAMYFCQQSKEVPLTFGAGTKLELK
notes: Murine monoclonal from a hybridoma; also called Hybridoma 64; m64
